B1: [224G11][Hz1] (antibody, V domains shown)
VH: QVQLVQSGAEVKKPGASVKVSCKASGYIFTAYTMHWVRQAPGQGLEWMGWIKPNNGLANYAQKFQGRVTMTRDTSISTAYMELSRLRSDDTAVYYCARSEITTEFDYWGQGTLVTVSS
VL: DIVLTQSPDSLAVSLGERATINCKSSESVDSYANSFMHWYQQKPGQPPKLLIYRASTRESGVPDRFSGSGSRTDFTLTISSLQAEDVAVYYCQQSKEDPLTFGGGTKVEIKR
B2: [224G11][Hz2] (antibody, V domains shown)
VH: QVQLVQSGAEVKKPGASVKVSCKASGYIFTAYTMHWVRQAPGQGLEWMGWIKPNNGLANYAQKFQGRVTMTRDTSISTAYMELSRLRSDDTAVYYCARSEITTEFDYWGQGTLVTVSS
VL: DIVMTQSPDSLAVSLGERATINCKSSESVDSYANSFMHWYQQKPGQPPKLLIYRASTRESGVPDRFSGSGSGTDFTLTISSLQAEDVAVYYCQQSKEDPLTFGGGTKVEIKR
B3: [224G11][TH7 Hz1] (antibody, V domains shown)
VH: QVQLVQSGAEVKKPGASVKVSCKASGYIFTAYTMHWVRQAPGQGLEWMGWIKPNNGLANYAQKFQGRVTMTRDTSISTAYMELSRLRSDDTAVYYCARSEITTEFDYWGQGTLVTVSS
VL: DIVLTQSPDSLAVSLGERATINCKSSESVDSYANSFMHWYQQKPGQPPKLLIYRASTRESGVPDRFSGSGSRTDFTLTISSLQAEDVAVYYCQQSKEDPLTFGGGTKVEIKR
B4: [224G11][TH7 Hz3] (antibody, V domains shown)
VH: QVQLVQSGAEVKKPGASVKVSCKASGYIFTAYTMHWVRQAPGQGLEWMGWIKPNNGLANYAQKFQGRVTMTRDTSISTAYMELSRLRSDDTAVYYCARSEITTEFDYWGQGTLVTVSS
VL: DIVMTQSPDSLAVSLGERATINCKSSESVDSYANSFLHWYQQKPGQPPKLLIYRASTRESGVPDRFSGSGSGTDFTLTISSLQAEDVAVYYCQQSKEDPLTFGGGTKVEIKR
B5: [224G11][Hz3] (antibody, V domains shown)
VH: QVQLVQSGAEVKKPGASVKVSCKASGYIFTAYTMHWVRQAPGQGLEWMGWIKPNNGLANYAQKFQGRVTMTRDTSISTAYMELSRLRSDDTAVYYCARSEITTEFDYWGQGTLVTVSS
VL: DIVMTQSPDSLAVSLGERATINCKSSESVDSYANSFLHWYQQKPGQPPKLLIYRASTRESGVPDRFSGSGSGTDFTLTISSLQAEDVAVYYCQQSKEDPLTFGGGTKVEIKR
B6: murine 224G11 Mab (antibody, mouse IgG1, V domains shown)
VH: EVQLQQSGPELVKPGASVKISCKTSGYIFTAYTMHWVRQSLGESLDWIGGIKPNNGLANYNQKFKGKATLTVDKSSSTAYMDLRSLTSEDSAVYYCARSEITTEFDYWGQGTALTVSS
VL: DIVLTQSPASLAVSLGQRATISCRASESVDSYANSFMHWYQQKPGQPPKLLIYRASNLESGIPARFSGSGSRTDFTLTINPVEADDVATYYCQQSKEDPLTFGSGTKLEMKR
B7: [224G11]chim (antibody, human IgG1, V domains shown)
VH: EVQLQQSGPELVKPGASVKISCKTSGYIFTAYTMHWVRQSLGESLDWIGGIKPNNGLANYNQKFKGKATLTVDKSSSTAYMDLRSLTSEDSAVYYCARSEITTEFDYWGQGTALTVSS
VL: DIVLTQSPASLAVSLGQRATISCRASESVDSYANSFMHWYQQKPGQPPKLLIYRASNLESGIPARFSGSGSRTDFTLTINPVEADDVATYYCQQSKEDPLTFGSGTKLEMKR
B8: [224G11][MMCH chim] (antibody, human IgG1, V domains shown)
VH: EVQLQQSGPELVKPGASVKISCKTSGYIFTAYTMHWVRQSLGESLDWIGGIKPNNGLANYNQKFKGKATLTVDKSSSTAYMDLRSLTSEDSAVYYCARSEITTEFDYWGQGTALTVSS
VL: DIVLTQSPASLAVSLGQRATISCRASESVDSYANSFMHWYQQKPGQPPKLLIYRASNLESGIPARFSGSGSRTDFTLTINPVEADDVATYYCQQSKEDPLTFGSGTKLEMKR
B9: [224G11][MUP9H chim] (antibody, human IgG1, V domains shown)
VH: EVQLQQSGPELVKPGASVKISCKTSGYIFTAYTMHWVRQSLGESLDWIGGIKPNNGLANYNQKFKGKATLTVDKSSSTAYMDLRSLTSEDSAVYYCARSEITTEFDYWGQGTALTVSS
VL: DIVLTQSPASLAVSLGQRATISCRASESVDSYANSFMHWYQQKPGQPPKLLIYRASNLESGIPARFSGSGSRTDFTLTINPVEADDVATYYCQQSKEDPLTFGSGTKLEMKR
B10: [224G11][MH chim] (antibody, human IgG1, V domains shown)
VH: EVQLQQSGPELVKPGASVKISCKTSGYIFTAYTMHWVRQSLGESLDWIGGIKPNNGLANYNQKFKGKATLTVDKSSSTAYMDLRSLTSEDSAVYYCARSEITTEFDYWGQGTALTVSS
VL: DIVLTQSPASLAVSLGQRATISCRASESVDSYANSFMHWYQQKPGQPPKLLIYRASNLESGIPARFSGSGSRTDFTLTINPVEADDVATYYCQQSKEDPLTFGSGTKLEMKR
B11: [224G11][TH7 chim] (antibody)
heavy: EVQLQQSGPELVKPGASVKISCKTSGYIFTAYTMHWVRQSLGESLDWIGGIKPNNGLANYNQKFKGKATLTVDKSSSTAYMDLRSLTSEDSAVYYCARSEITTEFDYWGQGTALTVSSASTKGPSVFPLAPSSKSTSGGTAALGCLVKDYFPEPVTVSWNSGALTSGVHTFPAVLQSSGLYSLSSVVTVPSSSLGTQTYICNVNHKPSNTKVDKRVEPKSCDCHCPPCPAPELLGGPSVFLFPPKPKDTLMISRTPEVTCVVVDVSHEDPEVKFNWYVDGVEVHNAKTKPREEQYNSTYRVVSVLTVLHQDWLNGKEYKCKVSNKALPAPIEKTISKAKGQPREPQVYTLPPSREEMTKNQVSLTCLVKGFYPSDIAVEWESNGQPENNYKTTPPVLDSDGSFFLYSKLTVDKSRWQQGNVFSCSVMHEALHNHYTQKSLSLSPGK
light: DIVLTQSPASLAVSLGQRATISCRASESVDSYANSFMHWYQQKPGQPPKLLIYRASNLESGIPARFSGSGSRTDFTLTINPVEADDVATYYCQQSKEDPLTFGSGTKLEMKRTVAAPSVFIFPPSDEQLKSGTASVVCLLNNFYPREAKVQWKVDNALQSGNSQESVTEQDSKDSTYSLSSTLTLSKADYEKHKVYACEVTHQGLSSPVTKSFNRGEC

What follows are binders tested against human c-Met receptor on tumor cells (A549, NCI-H441, BxPC3) (human, UniProt P08581 25-1390) (assay: cell-based or functional assay).

Going from B1 to B2, the “inhibition of HGF-induced proliferation of NCI-H441 cells (Figure 14A)” value (shortened to “inhibition … (Figure 14A)”) falls from ~46% to ~30%.

Going from B5 to B6, the “inhibition … (Figure 14A)” value rises from ~35% to 66%.

B7 was tested, and the “inhibition … (Figure 14A)” value was 19%.

Going from B3 to B4, the “inhibition of HGF-induced proliferation of NCI-H441 cells (Figure 15)” value (“inhibition … (Figure 15)” for short) rises from 67% to 76%.

Compared with B6, B7 is lower in “inhibition … (Figure 15)” value: 74% for the first, 33% for the second.

For B11, the “inhibition … (Figure 15)” value was 81%.

First: B6
Second: B8
The “inhibition of HGF-induced proliferation of NCI-H441 cells (Figure 14B)” value (shortened to “inhibition … (Figure 14B)”) of the first is lower: 57% for the first, 84% for the second.

Compared with B9, B10 is higher in “inhibition … (Figure 14B)” value: 78% for the first, 79% for the second.

With B11 the “inhibition … (Figure 14B)” value was 93%.
